For the data set the following is noted: Escherichia coli (strain K12), 25 °C, GdnHCl, CD, reversible: yes, whole UniProt chain shown.

Our source for the unfolding free energy values is FireProtDB (doi:10.1016/0022-2836(82)90184-x).

B1: Tryptophan synthase alpha chain wild type, P0A877 (protein)
chain: MERYESLFAQLKERKEGAFVPFVTLGDPGIEQSLKIIDTLIEAGADALELGIPFSDPLADGPTIQNATLRAFAAGVTPAQCFEMLALIRQKHPTIPIGLLMYANLVFNKGIDEFYAQCEKVGVDSVLVADVPVEESAPFRQAALRHNVAPIFICPPNADDDLLRQIASYGRGYTYLLSRAGVTGAENRAALPLNHLVAKLKEYNAAPPLQGFGISAPDQVKAAIDAGAAGAISGSAIVKIIEQHINEPEKMLAALKVFVQPMKAATRS
Regarding B1, the unfolding free energy (pH 5.5, acetate 0.05 M) amounted to 21.8 kJ/mol; the unfolding free energy (pH 7, Potassium phosphate 0.01 M) came to 36.8 kJ/mol; the unfolding free energy (pH 9, Tris-HCl 0.025 M) amounted to 20.5 kJ/mol.
